Results as given in paper PMC4024244 (Human genetics, 2013).

What was measured:
[1] = target: T1, muscle-specific receptor tyrosine kinase (MuSK), wild type, expressed in HEK-293 (human, UniProt O15146 24-869); assay: co-IP
T1 sequence (looked up): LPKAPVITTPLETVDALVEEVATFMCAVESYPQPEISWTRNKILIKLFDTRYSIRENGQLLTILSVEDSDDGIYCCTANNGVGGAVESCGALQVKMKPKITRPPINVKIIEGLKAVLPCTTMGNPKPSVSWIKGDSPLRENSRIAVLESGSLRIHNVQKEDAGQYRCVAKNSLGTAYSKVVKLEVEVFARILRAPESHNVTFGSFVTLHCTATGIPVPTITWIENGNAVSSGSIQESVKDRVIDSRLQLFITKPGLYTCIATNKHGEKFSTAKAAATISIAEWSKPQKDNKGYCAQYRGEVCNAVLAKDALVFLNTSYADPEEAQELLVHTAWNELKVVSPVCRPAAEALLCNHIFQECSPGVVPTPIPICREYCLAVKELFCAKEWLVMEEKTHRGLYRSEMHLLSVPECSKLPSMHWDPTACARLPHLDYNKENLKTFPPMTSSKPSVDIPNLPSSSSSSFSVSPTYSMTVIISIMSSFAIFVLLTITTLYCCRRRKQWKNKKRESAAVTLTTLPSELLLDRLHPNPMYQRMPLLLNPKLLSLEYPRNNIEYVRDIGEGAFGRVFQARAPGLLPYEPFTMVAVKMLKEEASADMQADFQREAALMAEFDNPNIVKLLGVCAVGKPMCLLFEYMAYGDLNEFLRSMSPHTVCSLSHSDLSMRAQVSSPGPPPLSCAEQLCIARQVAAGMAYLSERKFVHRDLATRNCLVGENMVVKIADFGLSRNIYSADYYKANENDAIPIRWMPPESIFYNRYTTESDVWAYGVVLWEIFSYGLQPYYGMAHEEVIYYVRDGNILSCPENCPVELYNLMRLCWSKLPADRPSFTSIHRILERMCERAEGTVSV

MuSK protein (Millipore) = target: T2, MuSK protein (Millipore) (UniProt O15146 24-495); assay: plate overlay binding assay with
T2 chain: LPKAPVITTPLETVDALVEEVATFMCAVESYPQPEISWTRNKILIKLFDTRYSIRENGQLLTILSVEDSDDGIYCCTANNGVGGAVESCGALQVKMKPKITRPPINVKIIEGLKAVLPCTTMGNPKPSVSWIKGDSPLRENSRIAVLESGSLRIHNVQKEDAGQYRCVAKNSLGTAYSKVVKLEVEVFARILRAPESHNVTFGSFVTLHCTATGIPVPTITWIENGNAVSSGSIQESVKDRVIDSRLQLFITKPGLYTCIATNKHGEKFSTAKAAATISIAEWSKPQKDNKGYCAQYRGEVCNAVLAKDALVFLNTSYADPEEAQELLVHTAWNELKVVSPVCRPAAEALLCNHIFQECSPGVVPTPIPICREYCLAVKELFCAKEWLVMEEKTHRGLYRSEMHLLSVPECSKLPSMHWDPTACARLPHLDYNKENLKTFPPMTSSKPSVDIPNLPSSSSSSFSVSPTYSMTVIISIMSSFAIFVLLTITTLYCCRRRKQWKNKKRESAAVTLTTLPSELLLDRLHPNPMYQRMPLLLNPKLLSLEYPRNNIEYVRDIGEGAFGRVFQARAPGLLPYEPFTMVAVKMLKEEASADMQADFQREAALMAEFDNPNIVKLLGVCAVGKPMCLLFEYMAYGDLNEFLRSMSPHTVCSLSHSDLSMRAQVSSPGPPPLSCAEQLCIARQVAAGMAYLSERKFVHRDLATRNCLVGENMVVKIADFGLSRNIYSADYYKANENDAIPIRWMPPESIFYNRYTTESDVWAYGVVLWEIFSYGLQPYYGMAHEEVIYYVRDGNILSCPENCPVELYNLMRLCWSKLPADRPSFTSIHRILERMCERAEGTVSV

B1: ColQ p.Asp370Asn (natural protein, human, UniProt Q9Y215-1 23-455, looked up)
chain: QPTFINSVLPISAALPSLDQKKRGGHKACCLLTPPPPPLFPPPFFRGGRSPLLSPDMKNLMLELETSQSPCMQGSLGSPGPPGPQGPPGLPGKTGPKGEKGELGRPGRKGRPGPPGVPGMPGPIGWPGPEGPRGEKGDLGMMGLPGSRGPMGSKGYPGSRGEKGSRGEKGDLGPKGEKGFPGFPGMLGQKGEMGPKGEPGIAGHRGPTGRPGKRGKQGQKGDSGVMGPPGKPGPSGQPGRPGPPGPPPAGQLIMGPKGERGFPGPPGRCLCGPTMNVNNPSYGESVYGPSSPRVPVIFVVNNQEELERLNTQNAIAFRRDQRSLYFKDSLGWLPIQLTPFYPVDYTANQHGTCGDGLLQPGEECDDGNSDVGDDCIRCHRAYCGDGHRHEGVEDCDGSDFGYLTCETYLPGSYGDLQCTQYCYIDSTPCRYFT
percent reduction of binding to MuSK against WT ColQ [1]: 1.5%

B2: purified A12 asymmetric form of AChE with ColQ p.Asp370Asn (complex, human)
chain 1: QPTFINSVLPISAALPSLDQKKRGGHKACCLLTPPPPPLFPPPFFRGGRSPLLSPDMKNLMLELETSQSPCMQGSLGSPGPPGPQGPPGLPGKTGPKGEKGELGRPGRKGRPGPPGVPGMPGPIGWPGPEGPRGEKGDLGMMGLPGSRGPMGSKGYPGSRGEKGSRGEKGDLGPKGEKGFPGFPGMLGQKGEMGPKGEPGIAGHRGPTGRPGKRGKQGQKGDSGVMGPPGKPGPSGQPGRPGPPGPPPAGQLIMGPKGERGFPGPPGRCLCGPTMNVNNPSYGESVYGPSSPRVPVIFVVNNQEELERLNTQNAIAFRRDQRSLYFKDSLGWLPIQLTPFYPVDYTANQHGTCGDGLLQPGEECDDGNSDVGDDCIRCHRAYCGDGHRHEGVEDCDGSDFGYLTCETYLPGSYGDLQCTQYCYIDSTPCRYFT
chain 2: EGREDAELLVTVRGGRLRGIRLKTPGGPVSAFLGIPFAEPPMGPRRFLPPEPKQPWSGVVDATTFQSVCYQYVDTLYPGFEGTEMWNPNRELSEDCLYLNVWTPYPRPTSPTPVLVWIYGGGFYSGASSLDVYDGRFLVQAERTVLVSMNYRVGAFGFLALPGSREAPGNVGLLDQRLALQWVQENVAAFGGDPTSVTLFGESAGAASVGMHLLSPPSRGLFHRAVLQSGAPNGPWATVGMGEARRRATQLAHLVGCPPGGTGGNDTELVACLRTRPAQVLVNHEWHVLPQESVFRFSFVPVVDGDFLSDTPEALINAGDFHGLQVLVGVVKDEGSYFLVYGAPGFSKDNESLISRAEFLAGVRVGVPQVSDLAAEAVVLHYTDWLHPEDPARLREALSDVVGDHNVVCPVAQLAGRLAAQGARVYAYVFEHRASTLSWPLWMGVPHGYEIEFIFGIPLDPSRNYTAEEKIFAQRLMRYWANFARTGDPNEPRDPKAPQWPPYTAGAQQYVSLDLRPLEVRRGLRAQACAFWNRFLPKLLSATDTLDEAERQWKAEFHRWSSYMVHWKNQFDHYSKQDRCSDL
other (MuSK protein (Millipore)): 15%

B3: purified A12 asymmetric form of AChE with ColQ p.Cys397Ser (complex, human)
chain 1: QPTFINSVLPISAALPSLDQKKRGGHKACCLLTPPPPPLFPPPFFRGGRSPLLSPDMKNLMLELETSQSPCMQGSLGSPGPPGPQGPPGLPGKTGPKGEKGELGRPGRKGRPGPPGVPGMPGPIGWPGPEGPRGEKGDLGMMGLPGSRGPMGSKGYPGSRGEKGSRGEKGDLGPKGEKGFPGFPGMLGQKGEMGPKGEPGIAGHRGPTGRPGKRGKQGQKGDSGVMGPPGKPGPSGQPGRPGPPGPPPAGQLIMGPKGERGFPGPPGRCLCGPTMNVNNPSYGESVYGPSSPRVPVIFVVNNQEELERLNTQNAIAFRRDQRSLYFKDSLGWLPIQLTPFYPVDYTADQHGTCGDGLLQPGEECDDGNSDVGDDSIRCHRAYCGDGHRHEGVEDCDGSDFGYLTCETYLPGSYGDLQCTQYCYIDSTPCRYFT
chain 2: EGREDAELLVTVRGGRLRGIRLKTPGGPVSAFLGIPFAEPPMGPRRFLPPEPKQPWSGVVDATTFQSVCYQYVDTLYPGFEGTEMWNPNRELSEDCLYLNVWTPYPRPTSPTPVLVWIYGGGFYSGASSLDVYDGRFLVQAERTVLVSMNYRVGAFGFLALPGSREAPGNVGLLDQRLALQWVQENVAAFGGDPTSVTLFGESAGAASVGMHLLSPPSRGLFHRAVLQSGAPNGPWATVGMGEARRRATQLAHLVGCPPGGTGGNDTELVACLRTRPAQVLVNHEWHVLPQESVFRFSFVPVVDGDFLSDTPEALINAGDFHGLQVLVGVVKDEGSYFLVYGAPGFSKDNESLISRAEFLAGVRVGVPQVSDLAAEAVVLHYTDWLHPEDPARLREALSDVVGDHNVVCPVAQLAGRLAAQGARVYAYVFEHRASTLSWPLWMGVPHGYEIEFIFGIPLDPSRNYTAEEKIFAQRLMRYWANFARTGDPNEPRDPKAPQWPPYTAGAQQYVSLDLRPLEVRRGLRAQACAFWNRFLPKLLSATDTLDEAERQWKAEFHRWSSYMVHWKNQFDHYSKQDRCSDL
other (MuSK protein (Millipore)): 18%

B4: ColQ p.Cys397Ser (natural protein, human, UniProt Q9Y215-1 23-455, looked up)
chain: QPTFINSVLPISAALPSLDQKKRGGHKACCLLTPPPPPLFPPPFFRGGRSPLLSPDMKNLMLELETSQSPCMQGSLGSPGPPGPQGPPGLPGKTGPKGEKGELGRPGRKGRPGPPGVPGMPGPIGWPGPEGPRGEKGDLGMMGLPGSRGPMGSKGYPGSRGEKGSRGEKGDLGPKGEKGFPGFPGMLGQKGEMGPKGEPGIAGHRGPTGRPGKRGKQGQKGDSGVMGPPGKPGPSGQPGRPGPPGPPPAGQLIMGPKGERGFPGPPGRCLCGPTMNVNNPSYGESVYGPSSPRVPVIFVVNNQEELERLNTQNAIAFRRDQRSLYFKDSLGWLPIQLTPFYPVDYTADQHGTCGDGLLQPGEECDDGNSDVGDDSIRCHRAYCGDGHRHEGVEDCDGSDFGYLTCETYLPGSYGDLQCTQYCYIDSTPCRYFT
percent reduction of binding to MuSK against WT ColQ [1]: 6.7%

B5: ColQ p.Cys400Tyr (natural protein, human, UniProt Q9Y215-1 23-455, looked up)
chain: QPTFINSVLPISAALPSLDQKKRGGHKACCLLTPPPPPLFPPPFFRGGRSPLLSPDMKNLMLELETSQSPCMQGSLGSPGPPGPQGPPGLPGKTGPKGEKGELGRPGRKGRPGPPGVPGMPGPIGWPGPEGPRGEKGDLGMMGLPGSRGPMGSKGYPGSRGEKGSRGEKGDLGPKGEKGFPGFPGMLGQKGEMGPKGEPGIAGHRGPTGRPGKRGKQGQKGDSGVMGPPGKPGPSGQPGRPGPPGPPPAGQLIMGPKGERGFPGPPGRCLCGPTMNVNNPSYGESVYGPSSPRVPVIFVVNNQEELERLNTQNAIAFRRDQRSLYFKDSLGWLPIQLTPFYPVDYTADQHGTCGDGLLQPGEECDDGNSDVGDDCIRYHRAYCGDGHRHEGVEDCDGSDFGYLTCETYLPGSYGDLQCTQYCYIDSTPCRYFT
percent reduction of binding to MuSK against WT ColQ [1]: 5%

B6: ColQ p.Tyr404Asp (natural protein, human, UniProt Q9Y215-1 23-455, looked up)
chain: QPTFINSVLPISAALPSLDQKKRGGHKACCLLTPPPPPLFPPPFFRGGRSPLLSPDMKNLMLELETSQSPCMQGSLGSPGPPGPQGPPGLPGKTGPKGEKGELGRPGRKGRPGPPGVPGMPGPIGWPGPEGPRGEKGDLGMMGLPGSRGPMGSKGYPGSRGEKGSRGEKGDLGPKGEKGFPGFPGMLGQKGEMGPKGEPGIAGHRGPTGRPGKRGKQGQKGDSGVMGPPGKPGPSGQPGRPGPPGPPPAGQLIMGPKGERGFPGPPGRCLCGPTMNVNNPSYGESVYGPSSPRVPVIFVVNNQEELERLNTQNAIAFRRDQRSLYFKDSLGWLPIQLTPFYPVDYTADQHGTCGDGLLQPGEECDDGNSDVGDDCIRCHRADCGDGHRHEGVEDCDGSDFGYLTCETYLPGSYGDLQCTQYCYIDSTPCRYFT
percent reduction of binding to MuSK against WT ColQ [1]: 7.4%

B7: ColQ p.Gly423Val (natural protein, human, UniProt Q9Y215-1 23-455, looked up)
chain: QPTFINSVLPISAALPSLDQKKRGGHKACCLLTPPPPPLFPPPFFRGGRSPLLSPDMKNLMLELETSQSPCMQGSLGSPGPPGPQGPPGLPGKTGPKGEKGELGRPGRKGRPGPPGVPGMPGPIGWPGPEGPRGEKGDLGMMGLPGSRGPMGSKGYPGSRGEKGSRGEKGDLGPKGEKGFPGFPGMLGQKGEMGPKGEPGIAGHRGPTGRPGKRGKQGQKGDSGVMGPPGKPGPSGQPGRPGPPGPPPAGQLIMGPKGERGFPGPPGRCLCGPTMNVNNPSYGESVYGPSSPRVPVIFVVNNQEELERLNTQNAIAFRRDQRSLYFKDSLGWLPIQLTPFYPVDYTADQHGTCGDGLLQPGEECDDGNSDVGDDCIRCHRAYCGDGHRHEGVEDCDGSDFVYLTCETYLPGSYGDLQCTQYCYIDSTPCRYFT
percent reduction of binding to MuSK against WT ColQ [1]: 16.8%
